Data on 3 molecules can be found in article PMC6631453, “Set-Up and Validation of a High Throughput Screening Method for Human Monoacylglycerol Lipase (MAGL) Based on a New Red Fluorescent Probe” (Molecules, 2019).

For data set [1], the target named is T1, human recombinant monoacylglycerol lipase (hMAGL) (Homo sapiens, UniProt Q99685).
T1 construct: gene MGLL
T1 sequence (Q99685 1-303): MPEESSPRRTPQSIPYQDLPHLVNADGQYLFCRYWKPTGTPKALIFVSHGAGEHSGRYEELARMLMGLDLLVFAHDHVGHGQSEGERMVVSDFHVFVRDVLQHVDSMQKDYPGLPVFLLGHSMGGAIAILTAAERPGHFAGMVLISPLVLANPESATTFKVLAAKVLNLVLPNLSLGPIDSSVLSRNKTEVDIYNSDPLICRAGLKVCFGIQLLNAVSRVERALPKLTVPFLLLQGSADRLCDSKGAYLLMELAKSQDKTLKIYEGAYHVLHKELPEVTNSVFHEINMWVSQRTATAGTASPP
Put plainly: fluorogenic assay with substrate 1c, […] min pre-incubation. It is filed as biochemical.

The target of data set [2] is T1, human recombinant monoacylglycerol lipase (hMAGL). The experiment in a line: fluorogenic hydrolysis at […], normalized to 1c. The class given is biochemical.
Substrate in data set [3]: CCCCCCCC(=O)Oc1ccc2nc3ccc(=O)cc-3oc2c1
Put plainly: purified protein. It is filed as biochemical, Homo sapiens.

Substrate in data set [4]: CCCCC(CC)C(=O)Oc1ccc2nc3ccc(=O)cc-3oc2c1
The experiment in a line: fluorogenic hydrolysis kinetics (Km), low Vmax. The class given is biochemical, Homo sapiens.

Substrate in data set [5]: CCCCC(C)C(=O)Oc1ccc2nc3ccc(=O)cc-3oc2c1
Put plainly: fluorogenic hydrolysis kinetics (Km). It is filed as biochemical, Homo sapiens.

Substrate in data set [6]: CCCCCCCCCCCC(=O)Oc1ccc2nc3ccc(=O)cc-3oc2c1
Put plainly: fluorogenic hydrolysis kinetics (Km). It is filed as biochemical, Homo sapiens.

Substrate in data set [7]: CCCCCCCC/C=C\CCCCCCCC(=O)Oc1ccc2nc3ccc(=O)cc-3oc2c1
The experiment in a line: fluorogenic hydrolysis kinetics (Km). The class given is biochemical, Homo sapiens.

Substrate in data set [8]: CCCCCCC(CCCC)C(=O)Oc1ccc2nc3ccc(=O)cc-3oc2c1
Put plainly: fluorogenic hydrolysis kinetics (Km), very low Vmax. The class given is biochemical, Homo sapiens.

By IC50 is commonly meant the concentration that gives 50% inhibition. For the molecule `O=C(Nc1cccc(-c2ccccc2)c1)OC1CCCCC1` [URB602], the IC50 in data set [1] was determined as 8.1 µM.

On to `CCCCC/C=C\C/C=C\C/C=C\C/C=C\CCCC(=O)Oc1ccc2nc3ccc(=O)cc-3oc2c1` [1g, 7-hydroxyresorufinyl arachidonate], for which the “fluorogenic hydrolysis at 5 μM, normalized to 1c” value in data set [2] is listed as “Normalized hydrolysis of different substrates by hMAGL”.

B1: human recombinant monoacylglycerol lipase (hMAGL) (Homo sapiens) (protein)
chain: MPEESSPRRTPQSIPYQDLPHLVNADGQYLFCRYWKPTGTPKALIFVSHGAGEHSGRYEELARMLMGLDLLVFAHDHVGHGQSEGERMVVSDFHVFVRDVLQHVDSMQKDYPGLPVFLLGHSMGGAIAILTAAERPGHFAGMVLISPLVLANPESATTFKVLAAKVLNLVLPNLSLGPIDSSVLSRNKTEVDIYNSDPLICRAGLKVCFGIQLLNAVSRVERALPKLTVPFLLLQGSADRLCDSKGAYLLMELAKSQDKTLKIYEGAYHVLHKELPEVTNSVFHEINMWVSQRTATAGTASPP
One may read the Km as the concentration of substrate that gives half-maximal velocity. In general, Vmax refers to the top rate of the reaction or transport when substrate is in excess. Consider B1, for which the Michaelis constant (Km) in data set [3] is 0.66 µM; in data set [4], 2.8 µM; in data set [5], 1.09 µM; in data set [6] it was 0.31 µM; in data set [7], 0.42 µM; in data set [8] it was 1.1 µM. In addition, the Vmax was 0.106 µmol/min/mg in data set [3] (catalytic active site near Ser122 (docking only)); 0.0013 µmol/min/mg in data set [4]; 0.033 µmol/min/mg in data set [5]; 0.024 µmol/min/mg in data set [6]; 0.013 µmol/min/mg in data set [7]; 0.00067 µmol/min/mg in data set [8].
